The target in the experiment is NHE1-ECL1-rIgG, the first extracellular loop of the ALV-J receptor NHE1 fused to rabbit IgG Fc (expressed in DF-1 cells) (chicken).

In turn, “Env protein (envelope glycoprotein, gp85-gp37) of ALV-J strain TBC-J6, wild type (natural protein)” had a reduction of ALV-J infection (p27 mRNA level by qPCR) of DF-1 cells transfected with 250 ng pCAGGS-env(wt) for 2 days; the receptor is the endogenous NHE1 of DF-1 cells of 91%.

Values taken from paper PMC8865534.
